From publication PMC9770967, “Native holdup (nHU) to measure binding affinities from cell extracts” (Science Advances, 2022) come the findings set out here.

Holding throughout (format): binding, human
The target of one test is full-length SNX27. Nature of the test: nHU-MS, recombinant full-length SNX27 bait, total Jurkat extracts. The conditions noted are these: apparent, Fig. 4D, n = 6. Here is the method: (§1) The empty His6-AviTag-MBP-TEV vector was used to produce biotinylated MBP for control experiments. Proteins were coexpressed with BirA biotin ligase (PET21a-BirA, Addgene, no. 20857) in Escherichia coli BL21(DE3) cells. At isopropyl-β-D-thiogalactopyranoside (IPTG) induction (1 mM IPTG at 18°C overnight), 50 μM biotin was added to the media. Harvested cells were lysed in a buffer containing 50 mM tris (pH 7.5), 150 to 300 mM NaCl, 50 μM biotin, 2 mM β-mercaptoethanol, cOmplete EDTA-free protease inhibitor cocktail (Roche, Basel, Switzerland), 1% Triton X-100, and trace amount of deoxyribonuclease, ribonuclease, and lysozyme. Lysates were frozen at −20°C before further purification steps. Lysates were sonicated and centrifuged for clarification. Expressed proteins were captured on in-house prepacked Ni-IDA (Protino Ni-IDA Resin, Macherey-Nagel, Duren, Germany) columns and were washed with at least 10 column volumes of cold wash buffer [50 mM tris (pH 7.5), 150 mM NaCl, and 2 mM β-mercaptoethanol] before elution with 250 mM imidazole. The Ni elution was collected directly on a preequilibrated amylose column (amylose high flow resin, New England Biolabs, Ipswich, MA). Amylose column was washed with 5 column volumes of cold wash buffer before fractionated elution in a buffer containing 25 mM Hepes (pH 7.5), 150 mM NaCl, 1 mM TCEP, 10% glycerol, 5 mM maltose, and cOmplete EDTA-free protease inhibitor cocktail. The concentration of proteins was determined by their ultraviolet absorption at 280 nm before aliquots were snap-frozen in liquid nitrogen and stored at −80°C.
(§2) For saturating streptavidin resin with biotinylated peptides or biotin, 50 μl of streptavidin resin was mixed with biotin or peptide at 40 to 60 μM concentration in 6 to 6.5 resin volume for 60 min. To saturate streptavidin resin with biotinylated proteins, 50 μl of streptavidin resin (Streptavidin Sepharose High Performance, Cytiva) was mixed with biotinylated MBP or MBP-PDZ at 40 to 50 μM concentration in 20× resin volume for 60 min. After saturation, resins were washed a single time [10 resin volume, holdup buffer: 50 mM tris (pH 7.5), 300 mM NaCl, and 1 mM TCEP, 0.22-μm filtered] and were depleted with biotin (10 resin volume, 10 min, holdup buffer supplemented with 100 μM biotin). Last, resins were washed two times (10 resin volume, holdup buffer).
(§3) For single-point nHU experiments carried out at ~10 μM bait concentration, 50 μl of saturated streptavidin resin was mixed with 200 μl of cell lysate (2 mg/ml). Titration experiments were carried out by mixing control and bait-saturated resin and keeping the total resin volume constant; e.g., ~5 μM bait concentration can be achieved by mixing 25 μl of bait-saturated streptavidin resin with 25 μl of control resin and 200 μl of cell lysate (2 mg/ml). Control and bait-saturated resins were prepared in larger amounts, and a serial dilution was prepared with these presaturated resins to achieve different resin ratios.
Unless specified elswhere, the nHU mixture was incubated at 4°C for 2 hours. After the incubation ended, the resin was separated from the supernatant by a brief centrifugation (15 s, 2000 g). Then, half of the supernatant was removed by pipetting without any delay to avoid any resin contamination; e.g., 100 μl of supernatant is collected if 200 μl of cell lysate was used as analyte. Alternatively, the supernatant can be centrifuged an additional time to clarify it further, removing any possible resin contamination. […]

Test [1] concerns SNX27_PDZ. Nature of the test: nHU-MS, SNX27_PDZ bait, total Jurkat extracts, series 1. Particulars: nHU-MS, total Jurkat extract. Here is the method:
as §1, §2, §3
Unless specified elswhere, the nHU mixture was incubated at 4°C for 2 hours. After the incubation ended, the resin was separated from the supernatant by a brief centrifugation (15 s, 2000 g). Then, half of the supernatant was removed by pipetting without any delay to avoid any resin contamination; e.g., 100 μl of supernatant is collected if 200 μl of cell lysate was used as analyte. Alternatively, the supernatant can be centrifuged an additional time to clarify it further, removing any possible resin contamination. In principle, the separation of the supernatant should be as fast as possible since any delay can perturb the equilibrium. […] Alternatively, the resin can be separated from the supernatant using filter plates (e.g., various products of Millipore, Burlington, MA) or spin columns (e.g., Pierce spin cups—cellulose acetate filter from Thermo Fisher Scientific, Waltham, MA) to achieve faster separation. […]

Test [2] has as its system SNX27_PDZ. Kind of test: AP-MS control pull-down on leftover resin, SNX27_PDZ bait, total Jurkat extracts. The conditions noted are these: AP-MS control pull-down, total Jurkat extract. As to the method: Leftover beads from nHU-MS experiments were washed three times immediately after the separation of the supernatant [10 resin volume in buffer containing 50 mM tris (pH 8.5), 150 mM NaCl, 1% Triton X-100, 10× cOmplete EDTA-free protease inhibitor cocktail, 2 mM EDTA, and 1 mM TCEP]. Then, the beads were washed two times [10 resin volume buffer containing 50 mM tris (pH 8.5), 150 mM NaCl, and 1 mM TCEP]. Last, captured protein was eluted from the resin in two steps, and the eluted fractions were pooled. For each elution, the beads were incubated for 30 min with three resin volume buffer containing 20 mM tris (pH 8.5), 100 mM NaCl, 500 μM TCEP, and 8 M urea. Between each step, the beads were separated by mild centrifugation, and the supernatant was removed by gentle pipetting.
The nHU samples were precipitated with trichloroacetic acid (TCA) 20% overnight at 4°C and centrifuged at 14,000 rpm for 10 min at 4°C. The protein pellets were washed twice with 1 ml of cold acetone and air-dried. The protein extracts were solubilized in 8 M urea, reduced with 5 mM TCEP for 30 min, and alkylated with 10 mM iodoacetamide for 30 min in the dark. Double digestion was performed at 37°C with 500 ng of endoproteinase Lys-C (Wako, Richmond, USA) for 4 hours, followed by fourfold dilution and an overnight digestion with 500 ng of trypsin (Promega, Charbonnieres les Bains, France). Peptide mixtures were then desalted on a C18 spin-column and dried on a speed vacuum.
Samples were analyzed using an Ultimate 3000 nano-RSLC coupled in line via a nano-electrospray ionization source, with an LTQ-Orbitrap ELITE mass spectrometer (Thermo Fisher Scientific, San Jose, CA) or with the Orbitrap Exploris 480 mass spectrometer (Thermo Fisher Scientific, Bremen, Germany) equipped with a high field asymmetric ion mobility spectrometry (FAIMS) module. Peptide mixtures were injected in 0.1% trifluoroacetic acid on a C18 Acclaim PepMap100 trap column [75 μm inner diameter (ID) × 2 cm, 3 μm, 100 Å, Thermo Fisher Scientific] for 3 min at 5 μl/min with 2% acetonitrile (ACN) and 0.1% formic acid (FA) in H2O and then separated on a C18 Acclaim PepMap100 nano-column (75 μm ID × 50 cm, 2.6 μm, 150 Å, Thermo Fisher Scientific) at 300 nl/min and 40°C with a 90-min linear gradient from 5 to 30% buffer B (A: 0.1% FA in H2O/B: 80% ACN, 0.1% FA in H2O) and regeneration at 5% B. Spray voltage was set to 2.1 kV and heated capillary temperature was set to 280°C.
For the Orbitrap Elite, the mass spectrometer was operated in positive ionization mode in data-dependent mode with survey scans from mass/charge ratio (m/z) 350 to 1500 acquired in the Orbitrap at a resolution of 120,000 at m/z 400. The 20 most intense peaks from survey scans were selected for further fragmentation in the linear ion trap with an isolation window of 2.0 Da and were fragmented by collision-induced dissociation (CID) with a normalized collision energy of 35% (TOP 20 CID method). Unassigned and single-charged states were excluded from fragmentation. The ion target value for the survey scans (in the Orbitrap) and the MS2 mode (in the linear ion trap) were set to 1E6 and 5E3, respectively, and the maximum injection time was set to 100 ms for both scan modes. Dynamic exclusion was set to 20 s after one repeat count with mass width at ±10 parts per million (ppm).
Proteins were identified by database search using SequestHT (Thermo Fisher Scientific) with Proteome Discoverer 2.4 software (PD2.4, Thermo Fisher Scientific) on the human FASTA database downloaded from UniProt (reviewed, release 2021_06_03, 20380 entries, https://uniprot.org/, complemented with sequences of likely contaminants, such as MBP, streptavidin, or trypsin). Precursor and fragment mass tolerances were set at 7 ppm and 0.6 Da, respectively, and up to two missed cleavages were allowed. […]

B1: SNX5: component of the SNX-BAR complex (protein, UniProt Q9Y5X3 2-404, looked up)
Sorting nexin-5: AAVPELLQQQEEDRSKLRSVSVDLNVDPSLQIDIPDALSERDKVKFTVHTKTTLPTFQSPEFSVTRQHEDFVWLHDTLIETTDYAGLIIPPAPTKPDFDGPREKMQKLGEGEGSMTKEEFAKMKQELEAEYLAVFKKTVSSHEVFLQRLSSHPVLSKDRNFHVFLEYDQDLSVRRKNTKEMFGGFFKSVVKSADEVLFTGVKEVDDFFEQEKNFLINYYNRIKDSCVKADKMTRSHKNVADDYIHTAACLHSLALEEPTVIKKYLLKVAELFEKLRKVEGRVSSDEDLKLTELLRYYMLNIEAAKDLLYRRTKALIDYENSNKALDKARLKSKDVKLAEAHQQECCQKFEQLSESAKEELINFKRKRVAAFRKNLIEMSELEIKHARNNVSLLQSCIDLFKNN
For B1, at full-length SNX27, the pKapp is 5.23.

B2: ZC3HAV1 (protein, UniProt Q7Z2W4 2-902, looked up)
Zinc finger CCCH-type …: ADPEVCCFITKILCAHGGRMALDALLQEIALSEPQLCEVLQVAGPDRFVVLETGGEAGITRSVVATTRARVCRRKYCQRPCDNLHLCKLNLLGRCNYSQSERNLCKYSHEVLSEENFKVLKNHELSGLNKEELAVLLLQSDPFFMPEICKSYKGEGRQQICNQQPPCSRLHICDHFTRGNCRFPNCLRSHNLMDRKVLAIMREHGLNPDVVQNIQDICNSKHMQKNPPGPRAPSSHRRNMAYRARSKSRDRFFQGSQEFLASASASAERSCTPSPDQISHRASLEDAPVDDLTRKFTYLGSQDRARPPSGSSKATDLGGTSQAGTSQRFLENGSQEDLLHGNPGSTYLASNSTSAPNWKSLTSWTNDQGARRKTVFSPTLPAARSSLGSLQTPEAVTTRKGTGLLSSDYRIINGKSGTQDIQPGPLFNNNADGVATDITSTRSLNYKSTSSGHREISSPRIQDAGPASRDVQATGRIADDADPRVALVNDSLSDVTSTTSSRVDDHDSEEICLDHLCKGCPLNGSCSKVHFHLPYRWQMLIGKTWTDFEHMETIEKGYCNPGIHLCSVGSYTINFRVMSCDSFPIRRLSTPSSVTKPANSVFTTKWIWYWKNESGTWIQYGEEKDKRKNSNVDSSYLESLYQSCPRGVVPFQAGSRNYELSFQGMIQTNIASKTQKDVIRRPTFVPQWYVQQMKRGPDHQPAKTSSVSLTATFRPQEDFCFLSSKKYKLSEIHHLHPEYVRVSEHFKASMKNFKIEKIKKIENSELLDKFTWKKSQMKEEGKLLFYATSRAYVESICSNNFDSFLHETHENKYGKGIYFAKDAIYSHKNCPYDAKNVVMFVAQVLVGKFTEGNITYTSPPPQFDSCVDTRSNPSVFVIFQKDQVYPQYVIEYTEDKACVIS
On to B2, for which the Ratio_HU in the test on SNX27_PDZ [1] (SNX27/MBP, sheet "SNX27&Jurkat") worked out at 0.6368. This molecule also displayed a BI_HU with SNX27_PDZ [1] (SNX27 bait vs MBP control, sheet "SNX27&Jurkat") of 0.3632. Also, the pKapp_HU_not_filtered on SNX27_PDZ [1] (SNX27 bait, not filtered for significance) worked out at 4.758. Moreover, in the test on SNX27_PDZ [1] (SNX27 vs MBP control, sheet "SNX27&Jurkat"), the FC_HU is recorded as -0.651. Further, in the test on SNX27_PDZ [2] (SNX27/MBP), the Ratio_AP stood at 128.984. In the test with SNX27_PDZ [2] (SNX27 vs MBP), this molecule came in with an FC_AP of 7.011. In addition, the BINDER_AP entry in the test on SNX27_PDZ [2] (BINDS / DOES NOT BIND) is reported as “BINDS”.

B3: SNX6: component of the SNX-BAR complex (protein, UniProt Q9UNH7 1-406, looked up)
Sorting nexin-6: MMEGLDDGPDFLSEEDRGLKAINVDLQSDAALQVDISDALSERDKVKFTVHTKSSLPNFKQNEFSVVRQHEEFIWLHDSFVENEDYAGYIIPPAPPRPDFDASREKLQKLGEGEGSMTKEEFTKMKQELEAEYLAIFKKTVAMHEVFLCRVAAHPILRRDLNFHVFLEYNQDLSVRGKNKKEKLEDFFKNMVKSADGVIVSGVKDVDDFFEHERTFLLEYHNRVKDASAKSDRMTRSHKSAADDYNRIGSSLYALGTQDSTDICKFFLKVSELFDKTRKIEARVSADEDLKLSDLLKYYLRESQAAKDLLYRRSRSLVDYENANKALDKARAKNKDVLQAETSQQLCCQKFEKISESAKQELIDFKTRRVAAFRKNLVELAELELKHAKGNLQLLQNCLAVLNGDT
Consider B3, for which the pKapp on full-length SNX27 is 5.47.

B4: SNX2: component of the SNX-BAR complex (protein, UniProt O60749 1-519, looked up)
Sorting nexin-2: MAAEREPPPLGDGKPTDFEDLEDGEDLFTSTVSTLESSPSSPEPASLPAEDISANSNGPKPTEVVLDDDREDLFAEATEEVSLDSPEREPILSSEPSPAVTPVTPTTLIAPRIESKSMSAPVIFDRSREEIEEEANGDIFDIEIGVSDPEKVGDGMNAYMAYRVTTKTSLSMFSKSEFSVKRRFSDFLGLHSKLASKYLHVGYIVPPAPEKSIVGMTKVKVGKEDSSSTEFVEKRRAALERYLQRTVKHPTLLQDPDLRQFLESSELPRAVNTQALSGAGILRMVNKAADAVNKMTIKMNESDAWFEEKQQQFENLDQQLRKLHVSVEALVCHRKELSANTAAFAKSAAMLGNSEDHTALSRALSQLAEVEEKIDQLHQEQAFADFYMFSELLSDYIRLIAAVKGVFDHRMKCWQKWEDAQITLLKKREAEAKMMVANKPDKIQQAKNEIREWEAKVQQGERDFEQISKTIRKEVGRFEKERVKDFKTVIIKYLESLVQTQQQLIKYWEAFLPEAKAIA
For B4, the pKapp on full-length SNX27 stood at 5.04.
